From patent US20090087417A1, “METHODS FOR PROMOTING DOPAMINERGIC NEURONAL DEVELOPMENT BY USING NG4A-SUBFAMILY AND WNT-LIGANDS” (priority 2002, published 2009)

What was measured:
Assay type in all cases: cell-based, rat
VM cultures = assay: TuJ1+ neurons and proliferating clusters, proportion dopaminergic, in VM cultures; conditions: for total number of TuJ1+ neurons: FIG. 3f
Experimental: (§1) Ventral mesencephala and cerebral cortices from embryos E13.5-14.5 obtained from timed-mated Sprague-Dawley rats were dissected, mechanically dissociated and plated at a final density of 1×10^5 cells/cm2 on poly-D-lysine coated 12- or 24-well plates in a defined, serum-free medium (N2, consisting of a 1:1 mixture of F12 and DMEM containing insulin (10 ng/ml), transferrin (100 μg/ml), putrescine (100 μM), progesterone (20 nM), selenium (30 nM), glucose (6 mg/ml), and bovine serum albumin (1 mg/ml)). Purified Type 1 astrocytes were obtained from mixed glial cultures derived from the VM or CTX of P1 rats according to a standard protocol (Wagner et al., 1999). After shaking and replating into 12-well plates, astrocytes were grown to confluency in 15% fetal bovine serum-containing media and changed to N2 medium, at which time freshly dissected VM or CTX cells were plated on top of the astrocytes at a density of 1×10^5 cells/cm2. All factors were added once, at the initiation of culture, with the exception of 5-bromodeoxyuridine (BrdU), which was added 4-6 hours prior to fixation. Cultures were maintained in a humidified 5% CO2, 95% air incubator at 37° C. and fixed after given time periods with 4% paraformaldehyde for 45 minutes prior to immunocytochemical analysis.
(§2) Fixed cultures were incubated with one of the following antibodies, diluted appropriately in phosphate-buffered saline (PBS) containing 1% bovine serum albumin and 0.3% Triton-X 100: mouse anti-BrdU, 1:50 (DAKO, Denmark), mouse anti-β-tubulin, Type III (TuJ1), 1:250 (Sigma), mouse anti-TH, 1:1000 (Incstar, USA), rabbit anti-TH, 1:250 (PelFreeze); rabbit anti-Nurr1, 1:2000 (gift from Dr. T. Perlmann, Sweden), rabbit anti-Nurr1, 1:1000 (Santa Cruz, USA) or mouse anti-Nurr1, 1:250 (BD Transduction Laboratories, USA), rabbit anti Adh2 1:4000 (gift from Dr. R. Lindahl, South Carolina). Incubations were either carried out at 4° C. overnight, or at room temperature for 1 hour. Both processes yielded similar results. After washing, cultures were incubated for 1-3 hr with appropriate secondary antibodies (biotinylated 1:500; CY2-, FITC-, or rhodamine-coupled horse-anti-mouse IgG 1:100; or goat-anti-rabbit IgG 1:100; all from Vector, USA), in the same dilution buffer. Brightfield immunostaining was visualized with the Vector Laboratory ABC immunoperoxidase kit, using either NovaRed (red), or AEC (red), SG or 3-3′ dimaminobenzidine tetrahydrochloride (DAB 0.5 mg/ml)/nickel chloride (1.6 mg/ml) (gray/black), or VIP (violet) substrates. Double-staining was performed by sequential single staining as described. The order of staining was only critical for BrdU-double labeling, in which case the BrdU procedure was always performed second. […] Photos were acquired with a Zeiss Axioplan 100M microscope and collected with a Hamamatsu camera C4742-95 (with the QED imaging software).
Only clearly stained cells were counted as positive cells. Spheres were considered positive if they contained one or more positive cell. Quantitative immunocytochemical data on individual cells represent means and standard errors of counts obtained by a blinded observer from 10-20 non-overlapping fields (cells) or in the entire well (clusters), in each of 3-4 wells per condition from 3-4 independent experiments, unless stated otherwise. For each variable, initial statistical comparisons were performed by a global ANOVA, with multiple factors of dose, time point, treatment and/or region; if significant interactions between treatment and any other variable existed, data were further divided into separate times, doses or regions. Fisher's protected least significant difference was used post hoc to identify specific points at which the treatments differed from controls (or each other) only when significant interactions between factor treatment and other variables occurred. Significance for all tests was assumed at the level of p<0.05. […]

[1] = system: ventral mesencephalic Nurr1+ neuronal precursors; assay: Conversion of VM Nurr1+ precursors into Nurr1+/TH+ dopaminergic neurons (double immunostaining); conditions: VM cultures; control approximately 50%
Experimental: as §1
B1A fibroblast lines were cotransfected with the mFz8CRD-IgG/pRK5 and the pIRES puro 2 (Clontech, BD Bioscience, Erembodegem, Belgium) plasmids, using Lipofectamine Plus reagent (Invitrogen, Lidingo, Sweden) according to the instruction of the manufacturer. Upon selection for puromycin resistance (1 μg/ml Sigma, Stockholm, Sweden), clones were isolated and expanded. A clone overexpressing Fz8CRD 700× (real time RT-PCR analysis) was identified. Harvesting and partial purification of Fz8CRD conditioned media were performed as described previously. In all the blocking experiments performed, the Fz8CRD and B1A control partial purified conditioned medias were used at a final concentration of 125-250 μg/ml. […]
Only clearly stained cells were counted as positive cells. […]

[2] = system: E13.5 primary cultures from the cerebral cortex; assay: Induction of TH in Nurr1+ E13.5 cerebral cortex primary cultures; conditions: for proportion of Nurr1 positive cortical cells that expressed TH: Wnt ligands or co-culture with P1 astrocytes
Experimental: as §1, §2
Only clearly stained cells were counted as positive cells. Spheres were considered positive if they contained one or more positive cell. Quantitative immunocytochemical data on individual cells represent means and standard errors of counts obtained by a blinded observer from 10-20 non-overlapping fields (cells) or in the entire well (clusters), in each of 3-4 wells per condition from 3-4 independent experiments, unless stated otherwise. […]

Molecule	enrichment for dopaminergic clusters (VM cultures; FIG. 3e)	total number of TuJ1+ neurons (VM cultures)	enrichment for dopaminergic neurons (VM cultures; FIG. 3g)	increase in number of proliferating clusters containing TuJ1+ cells (VM cultures; compared to control (FIG. 3d))	proportion of Nurr1 positive cells that expressed TH (Nurr1+/TH+) [1] [%]	increase in number of double Nurr1/TH+ cells compared to Wnt-1 ([2]; 3 days) [fold]	increase in number of double Nurr1/TH+ cells compared to control ([2]; 3 days) [fold]	proportion of Nurr1 positive cortical cells that expressed TH [2]	proportion of VM clusters containing dopaminergic neurons (VM cultures; FIG. 3e)	proportion of TH+ (dopaminergic) neurons (VM cultures; FIG. 3g)
Wnt-5a: Partially purified conditioned media from stable fibroblast cell line engineered to secrete Wnt-5a ligand (protein, left off: small tags and cut ends) IIGAQPLCSQLAGLSQGQKKLCHLYQDHMQYIGEGAKTGIKECQYQFRHRRWNCSTVDNTSVFGRVMQIGSRETAFTYAVSAAGVVNAMSRACREGELSTCGCSRAARPKDLPRDWLWGGCGDNIDYGYRFAKEFVDARERERIHAKGSYESARILMNLHNNEAGRRTVYNLADVACKCHGVSGSCSLKTCWLQLADFRKVGDALKEKYDSAAAMRLNSRGKLVQVNSRFNSPTTQDLVYIDPSPDYCVRNESTGSLGTQGRLCNKTSEGMDGCELMCCGRGYDQFKTVQTERCHCKFHWCCYVKCKKCTEIVDQFVCK	more than two	did not increase	more than two	did not increase	90	> 4	> 40	significant increase	–	–
Wnt-1: Partially purified conditioned media from stable fibroblast cell line engineered to secrete Wnt-1 ligand (protein, left off: small tags and cut ends) ANSSGRWWGIVNIASSTNLLTDSKSLQLVLEPSLQLLSRKQRRLIRQNPGILHSVSGGLQSAVRECKWQFRNRRWNCPTAPGPHLFGKIVNRGCRETAFIFAITSAGVTHSVARSCSEGSIESCTCDYRRRGPGGPDWHWGGCSDNIDFGRLFGREFVDSGEKGRDLRFLMNLHNNEAGRTTVFSEMRQECKCHGMSGSCTVRTCWMRLPTLRAVGDVLRDRFDGASRVLYGNRGSNRASRAELLRLEPEDPAHKPPSPHDLVYFEKSPNFCTYSGRLGTAGTAGRACNSSSPALDGCELLCCGRGHRTRTQRVTERCNCTFHWCCHVSCRNCTHTRVLHECL	–	increased	–	–	70	–	–	significant increase	about 30%	did not increase
